From the supplement of paper PMC10065799, “High-throughput profiling of sequence recognition by tyrosine kinases and SH2 domains using bacterial peptide display” (eLife, 2023)

Experiments:
c-Src SH2 = assay: SH2 binding enrichment of the phosphorylated peptide, bacterial display (enrichment ratio); higher = better substrate or ligand; peptides without Tyr show the background
Grb2 SH2 = Grb2 SH2 (UniProt P62993); assay: as above
SHP2-C SH2 = assay: as above
Fyn = Fyn (UniProt P06241); assay: phosphorylation enrichment, bacterial display (enrichment ratio); higher = better substrate or ligand; peptides without Tyr show the background
Fes = Fes (UniProt P07332); assay: as above
EPHB1 = EPHB1 (UniProt P54762); assay: as above
MERTK = MERTK (UniProt Q12866); assay: as above
AncSZ = assay: as above
FGFR3 = FGFR3 (UniProt P22607); assay: as above
c-Src = assay: as above
EPHB2 = EPHB2 (UniProt P29323); assay: as above
Jak2 = Jak2 (UniProt O60674); assay: as above
Fer (mouse) = assay: as above
Hck = Hck (UniProt P08631); assay: as above
FGFR1 = FGFR1 (UniProt P11362); assay: as above
c-Abl (mouse) = assay: as above
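Throughout, for SH2 binding enrichment of the phosphorylated peptide, bacterial display: peptide library displayed on the E. coli surface as eCPX fusions, selected cells deep-sequenced, score is each peptide's frequency after selection divided by its frequency in the input.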
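Throughout, for phosphorylation enrichment, bacterial display: 11-residue human phosphosite peptides and single-mutation variants displayed on the E. coli surface, counted by deep sequencing, each peptide's frequency after selection divided by its frequency in the unselected input library; frequency after pTyr selection over input frequency; kinase dosed for 20-30% of maximal phosphorylation in three min.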

Fes, sequence (P07332 whole entry, looked up): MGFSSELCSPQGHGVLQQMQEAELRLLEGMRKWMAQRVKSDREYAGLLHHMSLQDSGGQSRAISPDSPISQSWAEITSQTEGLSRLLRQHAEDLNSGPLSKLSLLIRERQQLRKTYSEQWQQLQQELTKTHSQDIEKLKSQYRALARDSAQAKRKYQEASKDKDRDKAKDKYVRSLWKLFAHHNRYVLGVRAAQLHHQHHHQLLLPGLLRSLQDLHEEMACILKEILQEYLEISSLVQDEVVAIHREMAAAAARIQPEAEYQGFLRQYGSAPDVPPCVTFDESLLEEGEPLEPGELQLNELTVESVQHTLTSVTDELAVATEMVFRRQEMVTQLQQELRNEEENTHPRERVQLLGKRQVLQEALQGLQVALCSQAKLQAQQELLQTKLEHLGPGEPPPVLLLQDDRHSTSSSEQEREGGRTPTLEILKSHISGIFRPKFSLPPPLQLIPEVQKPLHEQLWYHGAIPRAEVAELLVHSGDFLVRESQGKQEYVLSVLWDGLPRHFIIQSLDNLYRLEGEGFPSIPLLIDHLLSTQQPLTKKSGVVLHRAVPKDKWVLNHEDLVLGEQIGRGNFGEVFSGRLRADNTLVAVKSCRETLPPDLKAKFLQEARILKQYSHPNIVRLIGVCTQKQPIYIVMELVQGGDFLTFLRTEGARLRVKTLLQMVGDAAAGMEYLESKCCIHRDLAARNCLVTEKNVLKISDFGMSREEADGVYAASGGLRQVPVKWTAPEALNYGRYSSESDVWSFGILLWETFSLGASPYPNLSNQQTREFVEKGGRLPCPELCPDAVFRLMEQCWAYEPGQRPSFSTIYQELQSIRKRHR
EPHB2, sequence (P29323 whole entry, looked up): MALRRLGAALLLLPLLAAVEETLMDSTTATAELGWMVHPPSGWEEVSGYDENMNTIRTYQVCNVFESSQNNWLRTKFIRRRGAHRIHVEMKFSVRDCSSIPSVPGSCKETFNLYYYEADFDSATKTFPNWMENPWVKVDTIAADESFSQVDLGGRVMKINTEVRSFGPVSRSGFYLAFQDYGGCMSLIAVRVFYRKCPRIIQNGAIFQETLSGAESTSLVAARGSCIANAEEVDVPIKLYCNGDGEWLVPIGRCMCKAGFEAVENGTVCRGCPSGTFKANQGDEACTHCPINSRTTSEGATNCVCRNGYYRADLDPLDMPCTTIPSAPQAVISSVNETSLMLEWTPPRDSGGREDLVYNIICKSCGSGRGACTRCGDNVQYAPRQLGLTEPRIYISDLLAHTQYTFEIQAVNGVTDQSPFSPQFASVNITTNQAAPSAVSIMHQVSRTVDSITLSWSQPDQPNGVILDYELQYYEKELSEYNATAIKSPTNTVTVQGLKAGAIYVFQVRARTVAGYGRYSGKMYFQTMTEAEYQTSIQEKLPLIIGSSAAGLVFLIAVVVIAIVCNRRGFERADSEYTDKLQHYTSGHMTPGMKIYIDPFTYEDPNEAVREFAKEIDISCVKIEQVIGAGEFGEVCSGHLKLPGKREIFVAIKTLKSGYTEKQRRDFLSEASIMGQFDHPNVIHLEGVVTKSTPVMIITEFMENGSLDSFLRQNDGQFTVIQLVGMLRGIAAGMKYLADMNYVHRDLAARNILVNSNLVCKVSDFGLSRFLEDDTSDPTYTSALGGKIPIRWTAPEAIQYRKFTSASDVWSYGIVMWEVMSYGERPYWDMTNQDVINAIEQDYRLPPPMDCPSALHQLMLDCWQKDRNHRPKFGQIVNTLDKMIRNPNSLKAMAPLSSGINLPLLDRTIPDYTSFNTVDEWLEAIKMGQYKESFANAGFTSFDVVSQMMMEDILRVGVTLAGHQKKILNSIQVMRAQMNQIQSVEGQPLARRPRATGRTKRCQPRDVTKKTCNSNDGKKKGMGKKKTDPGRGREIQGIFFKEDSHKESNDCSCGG
MERTK, sequence (Q12866 whole entry, looked up): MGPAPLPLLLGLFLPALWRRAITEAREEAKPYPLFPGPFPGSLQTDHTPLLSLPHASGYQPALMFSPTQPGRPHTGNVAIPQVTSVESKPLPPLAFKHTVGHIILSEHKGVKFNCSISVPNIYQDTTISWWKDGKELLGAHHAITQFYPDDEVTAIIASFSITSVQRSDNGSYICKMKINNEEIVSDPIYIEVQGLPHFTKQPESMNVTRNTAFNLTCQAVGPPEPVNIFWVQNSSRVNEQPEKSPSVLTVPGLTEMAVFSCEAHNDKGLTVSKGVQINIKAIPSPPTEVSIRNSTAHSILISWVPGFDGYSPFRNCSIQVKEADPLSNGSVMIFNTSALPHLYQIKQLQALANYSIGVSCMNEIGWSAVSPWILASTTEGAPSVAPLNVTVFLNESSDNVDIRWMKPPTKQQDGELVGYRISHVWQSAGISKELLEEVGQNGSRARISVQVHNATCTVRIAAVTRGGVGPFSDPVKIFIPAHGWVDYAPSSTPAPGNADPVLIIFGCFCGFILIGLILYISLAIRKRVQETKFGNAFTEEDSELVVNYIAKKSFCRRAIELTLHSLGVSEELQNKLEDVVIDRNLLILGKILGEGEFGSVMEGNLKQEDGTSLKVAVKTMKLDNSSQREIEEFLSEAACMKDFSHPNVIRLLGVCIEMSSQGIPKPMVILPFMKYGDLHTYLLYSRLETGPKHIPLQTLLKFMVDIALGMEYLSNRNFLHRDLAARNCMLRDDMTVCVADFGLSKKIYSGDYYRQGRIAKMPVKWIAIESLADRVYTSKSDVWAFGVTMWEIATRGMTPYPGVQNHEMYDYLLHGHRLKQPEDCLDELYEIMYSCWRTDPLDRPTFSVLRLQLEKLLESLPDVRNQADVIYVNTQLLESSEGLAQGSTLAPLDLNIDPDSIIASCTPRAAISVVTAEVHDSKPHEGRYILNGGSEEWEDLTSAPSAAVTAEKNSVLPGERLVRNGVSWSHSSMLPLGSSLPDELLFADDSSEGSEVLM
FGFR1, sequence (P11362 whole entry, looked up): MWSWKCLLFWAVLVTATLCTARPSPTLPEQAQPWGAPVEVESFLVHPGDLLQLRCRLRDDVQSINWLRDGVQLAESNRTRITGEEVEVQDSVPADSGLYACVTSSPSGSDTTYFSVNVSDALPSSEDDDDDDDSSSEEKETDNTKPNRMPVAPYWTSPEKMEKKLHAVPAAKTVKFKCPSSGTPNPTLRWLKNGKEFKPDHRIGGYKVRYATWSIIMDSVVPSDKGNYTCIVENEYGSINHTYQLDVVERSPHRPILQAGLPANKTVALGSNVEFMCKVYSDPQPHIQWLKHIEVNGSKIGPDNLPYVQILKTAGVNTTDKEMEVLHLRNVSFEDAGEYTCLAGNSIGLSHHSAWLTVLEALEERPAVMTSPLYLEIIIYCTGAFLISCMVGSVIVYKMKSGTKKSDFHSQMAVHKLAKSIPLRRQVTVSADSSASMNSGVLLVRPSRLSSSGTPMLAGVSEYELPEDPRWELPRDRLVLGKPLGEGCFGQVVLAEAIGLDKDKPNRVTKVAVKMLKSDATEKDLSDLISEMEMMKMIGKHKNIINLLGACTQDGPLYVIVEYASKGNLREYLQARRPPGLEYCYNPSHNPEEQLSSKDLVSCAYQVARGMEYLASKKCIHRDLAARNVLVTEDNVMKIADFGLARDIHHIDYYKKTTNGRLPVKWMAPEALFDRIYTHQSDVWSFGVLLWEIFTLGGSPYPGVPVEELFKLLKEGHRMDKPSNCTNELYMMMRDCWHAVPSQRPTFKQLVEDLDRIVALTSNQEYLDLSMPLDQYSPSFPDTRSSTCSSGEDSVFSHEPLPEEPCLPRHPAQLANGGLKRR
Jak2, sequence (O60674 whole entry, looked up): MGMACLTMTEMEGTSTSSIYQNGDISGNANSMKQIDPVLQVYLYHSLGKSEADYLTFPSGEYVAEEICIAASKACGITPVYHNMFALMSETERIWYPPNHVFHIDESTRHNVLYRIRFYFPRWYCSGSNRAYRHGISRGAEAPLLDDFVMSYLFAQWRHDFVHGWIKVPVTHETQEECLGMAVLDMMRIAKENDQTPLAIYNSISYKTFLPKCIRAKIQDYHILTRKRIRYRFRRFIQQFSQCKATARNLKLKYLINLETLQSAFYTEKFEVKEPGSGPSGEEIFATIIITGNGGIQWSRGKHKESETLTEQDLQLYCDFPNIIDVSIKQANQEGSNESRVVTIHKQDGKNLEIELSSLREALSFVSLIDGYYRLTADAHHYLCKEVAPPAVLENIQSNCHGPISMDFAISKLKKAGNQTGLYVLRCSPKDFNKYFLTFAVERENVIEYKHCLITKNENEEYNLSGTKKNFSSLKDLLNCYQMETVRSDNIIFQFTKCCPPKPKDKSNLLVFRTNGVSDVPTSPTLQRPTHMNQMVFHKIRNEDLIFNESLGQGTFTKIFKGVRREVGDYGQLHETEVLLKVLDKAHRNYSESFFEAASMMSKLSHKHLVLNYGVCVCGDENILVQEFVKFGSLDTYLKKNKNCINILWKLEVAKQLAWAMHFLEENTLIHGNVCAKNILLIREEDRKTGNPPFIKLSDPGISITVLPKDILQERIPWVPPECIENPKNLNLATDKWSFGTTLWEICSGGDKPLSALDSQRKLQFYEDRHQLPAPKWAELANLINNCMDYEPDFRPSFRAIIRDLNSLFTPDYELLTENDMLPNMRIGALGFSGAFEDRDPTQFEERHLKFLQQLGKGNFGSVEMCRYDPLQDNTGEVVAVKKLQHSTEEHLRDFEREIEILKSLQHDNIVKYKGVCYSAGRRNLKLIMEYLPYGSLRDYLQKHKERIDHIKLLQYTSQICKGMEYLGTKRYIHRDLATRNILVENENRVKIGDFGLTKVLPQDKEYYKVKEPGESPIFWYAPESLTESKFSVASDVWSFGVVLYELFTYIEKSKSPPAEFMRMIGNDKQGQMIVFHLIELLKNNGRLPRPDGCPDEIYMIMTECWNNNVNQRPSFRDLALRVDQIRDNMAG

| Sequence | SH2 binding enrichment (c-Src SH2) | SH2 binding enrichment (Grb2 SH2) | SH2 binding enrichment (SHP2-C SH2) | phosphorylation enrichment (Fyn) | phosphorylation enrichment (Fes) | phosphorylation enrichment (EPHB1) | phosphorylation enrichment (MERTK) | phosphorylation enrichment (AncSZ) | phosphorylation enrichment (FGFR3) | phosphorylation enrichment (c-Src) | phosphorylation enrichment (EPHB2) | phosphorylation enrichment (Jak2) | phosphorylation enrichment (Fer (mouse)) | phosphorylation enrichment (Hck) | phosphorylation enrichment (FGFR1) | phosphorylation enrichment (c-Abl (mouse)) |
| --- | --- | --- | --- | --- | --- | --- | --- | --- | --- | --- | --- | --- | --- | --- | --- | --- |
| PADRAYSWYQH [NDST1_Y711] | 0.753 | 0.747 | 0.47 | 0.617 | 1.61 | 1.19 | 2.86 | 0.98 | 1.16 | 1.77 | 0.817 | 1.68 | 15.8 | 0.888 | 1.33 | 1.58 |
| PESIMYPKFTT [NTRK3_Y744_R745P] | 0.596 | 0.748 | 0.594 | 0.707 | 1.09 | 0.513 | 0.579 | 0.66 | 0.794 | 0.397 | 0.586 | 0.717 | 0.549 | 0.739 | 0.656 | 0.595 |
| PFNAEYGGGGG [AKR1B10_Y316] | 0.379 | 0.554 | 0.417 | 1.14 | 1.49 | 1.35 | 0.879 | 1.19 | 0.802 | 0.285 | 0.693 | 0.627 | 0.871 | 1.66 | 1.06 | 0.43 |
| PFTRNYYVRAV [CYBA_Y87] | 0.615 | 0.799 | 1.21 | 0.614 | 1.29 | 0.753 | 0.608 | 1.16 | 0.792 | 0.558 | 1.41 | 0.85 | 0.422 | 0.666 | 0.704 | 0.747 |
| PIQLFYTRKNT [GHR_Y86_R89K] | 0.605 | 0.767 | 0.756 | 1.04 | 1.62 | 0.65 | 0.846 | 4.3 | 0.967 | 1.39 | 0.835 | 1.86 | 1.27 | 1.18 | 0.718 | 0.916 |
| PLEGKYEWQEV [CDKN1B_Y74] | 3.88 | 0.675 | 0.516 | 0.379 | 1.49 | 0.57 | 0.452 | 1.29 | 0.743 | 0.465 | 0.572 | 1.11 | 0.613 | 0.483 | 0.619 | 0.816 |
| PLKALYLQQRL [ATM_Y2969_P2974L] | 0.8 | 1.2 | 1.17 | 0.343 | 1.01 | 0.539 | 0.523 | 0.776 | 0.692 | 0.46 | 0.629 | 0.634 | 0.398 | 0.62 | 0.429 | 0.722 |
| PLLEFYRDIFT [CDAN1_Y713_YF] | 0.473 | 0.857 | 0.966 | 0.669 | 2.2 | 0.95 | 0.81 | 1.85 | 1.33 | 0.816 | 0.874 | 2 | 0.732 | 0.626 | 0.822 | 1.18 |
| PQGVSYIFTID [DCX_Y103_R102S_YF] | 0.553 | 0.902 | 1.73 | 0.729 | 1.74 | 0.726 | 0.591 | 0.94 | 0.893 | 0.486 | 0.692 | 1.48 | 0.495 | 0.509 | 0.456 | 0.812 |
| PTATSYTPNLA [GABRA1_Y375] | 0.729 | 0.699 | 0.604 | 0.643 | 0.521 | 0.291 | 0.357 | 0.568 | 0.607 | 0.306 | 0.314 | 0.349 | 0.571 | 0.477 | 0.459 | 0.505 |
| PVQAAYEKVVA [HBB_Y131_Q132E] | 2.59 | 0.885 | 0.886 | 0.88 | 1.02 | 0.744 | 0.507 | 0.855 | 0.699 | 0.415 | 0.345 | 0.568 | 0.958 | 0.591 | 0.786 | 0.551 |
| PVQAAYQKLVA [HBB_Y131_V134L] | 0.709 | 0.659 | 0.764 | 0.582 | 0.796 | 0.458 | 0.577 | 0.735 | 0.698 | 0.499 | 0.494 | 1.55 | 0.768 | 0.558 | 0.447 | 0.518 |
| PVQAAYQKVVP [HBB_Y131_A136P] | 1 | 0.881 | 0.751 | 0.878 | 0.64 | 0.787 | 0.619 | 0.763 | 0.775 | 0.626 | 0.631 | 0.88 | 0.827 | 0.803 | 0.727 | 0.561 |
| PYSNPYENSLI [EPOR_Y489] | 5.44 | 3.58 | 0.818 | 0.906 | 1.16 | 0.781 | 0.912 | 1.17 | 1.14 | 1.15 | 0.714 | 1.05 | 2.63 | 0.679 | 0.806 | 0.762 |
| QAQMDYRRWQP [MPL_Y591_L594W] | 0.386 | 0.635 | 0.55 | 0.461 | 0.795 | 0.523 | 0.373 | 0.548 | 0.491 | 0.361 | 0.539 | 0.762 | 0.49 | 0.424 | 0.402 | 0.745 |
| QEIATHRRLLE [KRT14_Y415_Y415H] | 0.543 | 0.978 | 0.722 | 0.576 | 1.06 | 0.403 | 0.69 | 0.692 | 1.09 | 0.43 | 0.469 | 0.575 | 0.711 | 0.508 | 0.529 | 0.695 |
| QFLMKYVWSAP [ABCD1_Y337_S342P] | 0.595 | 0.941 | 0.653 | 0.562 | 1.63 | 0.834 | 0.61 | 1.68 | 1.03 | 0.429 | 0.738 | 1.34 | 0.836 | 0.674 | 0.634 | 0.749 |
| QGGRHYMMIVD [GAA_Y438_R437H] | 8.36 | 1.09 | 1.57 | 0.65 | 0.778 | 0.639 | 0.969 | 1.01 | 0.981 | 0.444 | 0.573 | 0.863 | 0.605 | 0.779 | 1.01 | 0.475 |
| QGLRLYRAHLA [BTK_Y617_P619A] | 1.21 | 1.38 | 1.61 | 0.576 | 0.978 | 0.587 | 0.582 | 1.43 | 0.677 | 0.523 | 0.602 | 0.878 | 0.467 | 0.497 | 0.521 | 0.854 |

Second part, led by results:

| SH2 binding enrichment (c-Src SH2) | SH2 binding enrichment (Grb2 SH2) | SH2 binding enrichment (SHP2-C SH2) | Sequence | phosphorylation enrichment (Fyn) | phosphorylation enrichment (Fes) | phosphorylation enrichment (EPHB1) | phosphorylation enrichment (MERTK) | phosphorylation enrichment (AncSZ) | phosphorylation enrichment (FGFR3) | phosphorylation enrichment (c-Src) | phosphorylation enrichment (EPHB2) | phosphorylation enrichment (Jak2) | phosphorylation enrichment (Fer (mouse)) | phosphorylation enrichment (Hck) | phosphorylation enrichment (FGFR1) | phosphorylation enrichment (c-Abl (mouse)) |
| --- | --- | --- | --- | --- | --- | --- | --- | --- | --- | --- | --- | --- | --- | --- | --- | --- |
| 0.976 | 1.48 | 1.15 | PCNLIYFGEHP [TRPV6_Y201] | 3.66 | 2.64 | 1.17 | 2.21 | 3.19 | 1.68 | 12.2 | 0.745 | 3.44 | 1.07 | 2.08 | 1.76 | 2.89 |
| 0.424 | 0.759 | 0.701 | PGVNFYFRVSA | 0.653 | 2.13 | 0.914 | 0.743 | 1.73 | 1.88 | 0.599 | 0.759 | 1.53 | 0.708 | 0.817 | 1.14 | 1.37 |
| 0.571 | 0.969 | 0.585 | PIMSFYAALID [RYR1_Y2426_A2421P] | 0.49 | 1.46 | 1.45 | 0.732 | 1.58 | 1.33 | 0.487 | 1.24 | 1.54 | 0.734 | 0.647 | 0.706 | 0.905 |
| 0.851 | 1.16 | 1 | PKSLFYLLLKP [TRPC6_Y775_L780P] | 0.439 | 2.1 | 0.759 | 0.963 | 1.64 | 1.12 | 0.684 | 0.569 | 1.73 | 0.568 | 0.513 | 0.708 | 1.31 |
| 0.394 | 0.757 | 0.629 | PLFGEYFTLQI [TP53_Y327_D324Y_YF] | 6.77 | 2.8 | 2.69 | 1.13 | 4.62 | 12.5 | 8.29 | 2.42 | 12.9 | 1.49 | 4.51 | 16.9 | 4.41 |
| 1.93 | 0.8 | 0.652 | PLKYLYPNIDR [STAT1_Y668_K673R] | 0.313 | 1.38 | 0.579 | 0.435 | 1.23 | 0.58 | 0.684 | 0.819 | 0.859 | 0.773 | 0.501 | 0.606 | 1.09 |
| 0.53 | 1.11 | 0.633 | PLQKTYNFNVL [SLC4A1_Y553_YF] | 0.602 | 0.903 | 0.709 | 0.426 | 0.686 | 0.593 | 0.43 | 0.645 | 1.05 | 0.383 | 0.477 | 0.554 | 0.627 |
| 4.6 | 1.18 | 2.66 | PSELYYSKISP [SMG1_Y2254_G2258S] | 6.66 | 2.15 | 6.25 | 23.1 | 2.87 | 8.81 | 8.68 | 3.13 | 6.46 | 23.8 | 17.9 | 11.7 | 4.3 |
| 0.705 | 1.2 | 1.11 | PSQRCYVFFFS [PTEN_Y174_R173C_YF] | 0.79 | 1.73 | 0.865 | 0.646 | 1.37 | 1.35 | 0.646 | 0.735 | 1.24 | 0.703 | 0.616 | 0.837 | 0.882 |
| 1.42 | 1.53 | 1.3 | PSQRPYVFFFS [PTEN_Y174_R173P_YF] | 0.605 | 1.51 | 0.726 | 0.755 | 1.27 | 1.14 | 0.973 | 0.559 | 1.21 | 0.693 | 0.439 | 2.12 | 1.25 |
| 0.787 | 1.62 | 0.369 | PTFENYANSTQ [SLC12A3_Y70_H69N_YF] | 0.437 | 1.08 | 0.542 | 0.572 | 0.853 | 0.539 | 0.391 | 0.711 | 0.895 | 0.52 | 0.766 | 0.615 | 0.531 |
| 3.76 | 0.724 | 1.54 | QDRTYYESVRT [SPEN_Y633] | 2.28 | 0.874 | 0.98 | 1.21 | 0.996 | 1.37 | 2.66 | 0.758 | 0.82 | 4.79 | 4.01 | 1.9 | 0.61 |
| 0.307 | 0.699 | 0.772 | QGIIIYRAAFF [SLC25A4_Y187_YF] | 0.342 | 1.69 | 0.605 | 0.61 | 1.21 | 0.634 | 0.542 | 0.338 | 1.17 | 0.581 | 0.422 | 0.327 | 1.04 |
| 0.726 | 0.898 | 0.841 | QITQVYGFFDE [PPP2CA_Y127_YF] | 14.9 | 1.81 | 1.28 | 2.32 | 1.81 | 1.08 | 8.8 | 0.97 | 1.33 | 1.39 | 6.92 | 0.836 | 1.06 |
